Paper PMC12637205, “A natural allele of the transcription factor gene TaMYB-D7b is a genetic signature for phosphorus deficiency in wheat”

Biological target: TaMYB-D7b (2174 allele, Gly-50) (Triticum aestivum cv. 2174, UniProt A0A410P7J2)
Experiment: EMSA; EMSA: 100 fmol biotin probe, 1 ug protein, 20 uL, 1x binding buffer, 2.5% glycerol, 5 mM MgCl2, 1 ug poly(dI-dC), room temperature 30 min; pH and salt not given
Settings: protein: recombinant; tags: His (pET32a vector); label: 5'-biotin

Sequence of TaMYB-D7b (2174 allele, Gly-50) (A0A410P7J2 entry or part of it): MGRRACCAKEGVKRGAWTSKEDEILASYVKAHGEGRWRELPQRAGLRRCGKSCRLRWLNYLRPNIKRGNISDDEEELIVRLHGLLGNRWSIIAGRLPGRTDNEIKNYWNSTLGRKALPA

B1: TaCHSL-A2 promoter probe (27 bp) (dsDNA)
DNA 1: TGCAAAGAAAACCAACCAACACTTACC
DNA 2: GGTAAGTGTTGGTTGGTTTTCTTTGCA
  binding result: binds
